Assay results reported in patent US20250250357A1 (NANJING ZAIMING PHARMACEUTICAL, published 2025).
Numbering of substitutions follows the chain as printed.

B1: F7.44.20-H3 (scFv, not shown: small tags and cut ends)
scFv: EVQLVQSGAEVKKPGASVKVSCKASGYTFTDYNMDWVRQAPGQGLEWMGDINPSTGGTIYNQKFNGRVTMTEDKSTSTVYMELSSLRSEDTAVYYCARRRIGTGYFDVWGQGTTVTVSSGGGGSGGGGSGGGGSEIVLTQSPATLSLSPGERATLSCSASSSVISSYLSWYQQKPGQSPRLLIYRTSNLASGIPARFSGSGSGTDYTLTISSLEPEDFAVYYCHQWSSFPYTFGGGTKVEIK
notes: also called S009-F7.44.20 humanized antibody VH1 + VL3
B2: F7.44.20-H11 (scFv, not shown: small tags and cut ends)
scFv: B1 scFv with T76A
notes: also called S009-F7.44.20 humanized antibody VH2 + VL3
B3: F7.44.20-H7 (scFv, not shown: small tags and cut ends)
scFv: B1 scFv with N65Q
notes: also called S009-F7.44.20 humanized antibody VH1a + VL3
B4: F7.44.20-H8 (scFv, not shown: small tags and cut ends)
scFv: B1 scFv with N65Q, Q177S
notes: also called S009-F7.44.20 humanized antibody VH1a + VL4
B5: F7.44.20-H4 (scFv, not shown: small tags and cut ends)
scFv: B1 scFv with Q177S
notes: also called S009-F7.44.20 humanized antibody VH1 + VL4
B6: F7.44.20-H1 (scFv, not shown: small tags and cut ends)
scFv: EVQLVQSGAEVKKPGASVKVSCKASGYTFTDYNMDWVRQAPGQGLEWMGDINPSTGGTIYNQKFNGRVTMTEDKSTSTVYMELSSLRSEDTAVYYCARRRIGTGYFDVWGQGTTVTVSSGGGGSGGGGSGGGGSEIVLTQSPDFQSVTPKEKVTITCSASSSVISSYLSWYQQKPDQSPKLLIYRTSNLASGVPSRFSGSGSGTDFTLTINSLEAEDAATYYCHQWSSFPYTFGGGTKVEIK
notes: also called S009-F7.44.20 humanized antibody VH1 + VL1
B7: F7.44.20-H13 (scFv, not shown: small tags and cut ends)
scFv: B6 scFv with N65S, T76A
notes: also called S009-F7.44.20 humanized antibody VH2a + VL1
B8: F7.44.20-H6 (scFv, not shown: small tags and cut ends)
scFv: B6 scFv with N65Q, F206Y
notes: also called S009-F7.44.20 humanized antibody VH1a + VL2
B9: F7.44.20-H2 (scFv, not shown: small tags and cut ends)
scFv: B6 scFv with F206Y
notes: also called S009-F7.44.20 humanized antibody VH1 + VL2
B10: F7.44.20-H5 (scFv, not shown: small tags and cut ends)
scFv: B6 scFv with N65Q
notes: also called S009-F7.44.20 humanized antibody VH1a + VL1
B11: F7.44.20-H10 (scFv, not shown: small tags and cut ends)
scFv: B6 scFv with T76A, F206Y
notes: also called S009-F7.44.20 humanized antibody VH2 + VL2
B12: F7.44.20-H9 (scFv, not shown: small tags and cut ends)
scFv: B6 scFv with T76A
notes: also called S009-F7.44.20 humanized antibody VH2 + VL1
B13: F7.44.20-H14 (scFv, not shown: small tags and cut ends)
scFv: B6 scFv with N65S, T76A, F206Y
notes: also called S009-F7.44.20 humanized antibody VH2a + VL2

What follows are binders tested against T1, human MSLN-R3 protein (human, UniProt Q13421 487-598) (assay: ELISA on coated antigen, antibody 10 nM).
T1 construct: also called hMSLN-R3
T1 sequence (Q13421 495-606, form in doubt): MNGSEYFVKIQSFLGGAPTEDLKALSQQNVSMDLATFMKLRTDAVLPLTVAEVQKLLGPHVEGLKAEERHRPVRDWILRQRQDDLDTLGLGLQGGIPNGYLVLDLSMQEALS

| OD450 | Binder |
| --- | --- |
| 2.12 OD450 | B1 |
| 2.41 OD450 | B2 |
| 2.23 OD450 | B3 |
| 2.07 OD450 | B4 |
| 2.11 OD450 | B5 |
| 2.27 OD450 | B6 |
| 1.57 OD450 | B7 |
| 2.15 OD450 | B8 |
| 2.22 OD450 | B9 |
| 2.05 OD450 | B10 |
| 2.25 OD450 | B11 |
| 2.1 OD450 | B12 |
| 1.69 OD450 | B13 |

These binders were tested against T1, human MSLN-R3 protein (assay: ELISA on coated antigen, antibody 0.01 nM).

| OD450 | Binder |
| --- | --- |
| 0.04 OD450 | B1 |
| 0.05 OD450 | B2 |
| 0.05 OD450 | B3 |
| 0.04 OD450 | B4 |
| 0.04 OD450 | B5 |
| 0.06 OD450 | B6 |
| 0.05 OD450 | B7 |
| 0.05 OD450 | B8 |
| 0.05 OD450 | B9 |
| 0.04 OD450 | B10 |
| 0.04 OD450 | B11 |
| 0.04 OD450 | B12 |
| 0.04 OD450 | B13 |

What follows are binders tested against T2, human MSLN-hFc protein (Acro, Cat. No. MSN-H5253) (human, UniProt Q13421 296-580) (assay: ELISA on coated antigen, antibody 10 nM).
T2 construct: the method names the coated protein as human MSLN-hFc (Acro); also called human MSLN full-length protein
T2 sequence (Q13421 other isoform, or with tags, fused parts or gaps limits assumed): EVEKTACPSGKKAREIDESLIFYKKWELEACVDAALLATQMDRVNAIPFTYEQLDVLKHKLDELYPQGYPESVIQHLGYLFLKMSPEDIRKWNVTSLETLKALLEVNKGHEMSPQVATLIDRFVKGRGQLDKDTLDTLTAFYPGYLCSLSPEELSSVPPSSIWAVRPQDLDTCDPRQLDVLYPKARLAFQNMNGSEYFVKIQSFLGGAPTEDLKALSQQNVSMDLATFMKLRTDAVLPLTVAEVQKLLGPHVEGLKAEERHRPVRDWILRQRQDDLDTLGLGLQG

| OD450 | Binder |
| --- | --- |
| 2.74 OD450 | B1 |
| 2.91 OD450 | B2 |
| 2.99 OD450 | B3 |
| 2.55 OD450 | B4 |
| 2.99 OD450 | B5 |
| 2.94 OD450 | B6 |
| 2.81 OD450 | B7 |
| 2.91 OD450 | B8 |
| 2.71 OD450 | B9 |
| 3.01 OD450 | B10 |
| 2.93 OD450 | B11 |
| 2.97 OD450 | B12 |
| 2.89 OD450 | B13 |

Each binder was assayed against T2, human MSLN-hFc protein (Acro, Cat. No. …) (assay: ELISA on coated antigen, antibody 100 nM).

| OD450 | Binder |
| --- | --- |
| 2.96 OD450 | B1 |
| 3.28 OD450 | B2 |
| 3.05 OD450 | B3 |
| 3.09 OD450 | B4 |
| 3.2 OD450 | B5 |
| 3.04 OD450 | B6 |
| 3.12 OD450 | B7 |
| 3.04 OD450 | B8 |
| 3.06 OD450 | B9 |
| 2.94 OD450 | B10 |
| 3.25 OD450 | B11 |
| 3.25 OD450 | B12 |
| 3.13 OD450 | B13 |

What follows are binders tested against T2, human MSLN-hFc protein (Acro, Cat. No. …) (assay: ELISA on coated antigen, antibody 0.01 nM).

| OD450 | Binder |
| --- | --- |
| 0.06 OD450 | B1 |
| 0.06 OD450 | B2 |
| 0.06 OD450 | B3 |
| 0.05 OD450 | B4 |
| 0.06 OD450 | B5 |
| 0.06 OD450 | B6 |
| 0.06 OD450 | B7 |
| 0.07 OD450 | B8 |
| 0.05 OD450 | B9 |
| 0.05 OD450 | B10 |
| 0.06 OD450 | B11 |
| 0.06 OD450 | B12 |
| 0.07 OD450 | B13 |

Each binder was assayed against T2, human MSLN-hFc protein (Acro, Cat. No. …) (assay: ELISA on coated antigen, antibody 1 nM).

| OD450 | Binder |
| --- | --- |
| 1.22 OD450 | B1 |
| 1.69 OD450 | B2 |
| 1.74 OD450 | B3 |
| 1.13 OD450 | B4 |
| 1.14 OD450 | B5 |
| 1.46 OD450 | B6 |
| 0.98 OD450 | B7 |
| 1.95 OD450 | B8 |
| 1.26 OD450 | B9 |
| 1.3 OD450 | B10 |
| 1.44 OD450 | B11 |
| 1.3 OD450 | B12 |
| 1.2 OD450 | B13 |

What follows are binders tested against T2, human MSLN-hFc protein (Acro, Cat. No. …) (assay: ELISA on coated antigen, antibody 0.0001 nM).

| OD450 | Binder |
| --- | --- |
| 0.04 OD450 | B1 |
| 0.05 OD450 | B2 |
| 0.04 OD450 | B3 |
| 0.05 OD450 | B4 |
| 0.05 OD450 | B5 |
| 0.05 OD450 | B6 |
| 0.06 OD450 | B7 |
| 0.05 OD450 | B8 |
| 0.04 OD450 | B9 |
| 0.04 OD450 | B10 |
| 0.05 OD450 | B11 |
| 0.05 OD450 | B12 |
| 0.05 OD450 | B13 |

These binders were tested against T1, human MSLN-R3 protein (assay: ELISA on coated antigen, antibody 0.001 nM).

| OD450 | Binder |
| --- | --- |
| 0.04 OD450 | B1 |
| 0.04 OD450 | B2 |
| 0.04 OD450 | B3 |
| 0.04 OD450 | B4 |
| 0.04 OD450 | B5 |
| 0.05 OD450 | B6 |
| 0.05 OD450 | B7 |
| 0.05 OD450 | B8 |
| 0.05 OD450 | B9 |
| 0.04 OD450 | B10 |
| 0.04 OD450 | B11 |
| 0.04 OD450 | B12 |
| 0.04 OD450 | B13 |

What follows are binders tested against T1, human MSLN-R3 protein (assay: ELISA on coated antigen, antibody 0.1 nM).

| OD450 | Binder |
| --- | --- |
| 0.1 OD450 | B1 |
| 0.16 OD450 | B2 |
| 0.16 OD450 | B3 |
| 0.09 OD450 | B4 |
| 0.1 OD450 | B5 |
| 0.16 OD450 | B6 |
| 0.08 OD450 | B7 |
| 0.21 OD450 | B8 |
| 0.11 OD450 | B9 |
| 0.11 OD450 | B10 |
| 0.11 OD450 | B11 |
| 0.11 OD450 | B12 |
| 0.1 OD450 | B13 |

The binders below were run against T2, human MSLN-hFc protein (Acro, Cat. No. …) (assay: ELISA on coated antigen, antibody 0.1 nM).

| OD450 | Binder |
| --- | --- |
| 0.15 OD450 | B1 |
| 0.27 OD450 | B2 |
| 0.3 OD450 | B3 |
| 0.15 OD450 | B4 |
| 0.19 OD450 | B5 |
| 0.22 OD450 | B6 |
| 0.16 OD450 | B7 |
| 0.37 OD450 | B8 |
| 0.16 OD450 | B9 |
| 0.19 OD450 | B10 |
| 0.24 OD450 | B11 |
| 0.19 OD450 | B12 |
| 0.19 OD450 | B13 |

The binders below were run against T1, human MSLN-R3 protein (assay: ELISA on coated antigen, antibody 1 nM).

| OD450 | Binder |
| --- | --- |
| 0.83 OD450 | B1 |
| 1.1 OD450 | B2 |
| 1.18 OD450 | B3 |
| 0.76 OD450 | B4 |
| 0.74 OD450 | B5 |
| 1.16 OD450 | B6 |
| 0.45 OD450 | B7 |
| 1.31 OD450 | B8 |
| 0.95 OD450 | B9 |
| 0.8 OD450 | B10 |
| 0.81 OD450 | B11 |
| 0.72 OD450 | B12 |
| 0.66 OD450 | B13 |

Each binder was assayed against T1, human MSLN-R3 protein (assay: ELISA on coated antigen, antibody 100 nM).

| OD450 | Binder |
| --- | --- |
| 2.21 OD450 | B1 |
| 2.43 OD450 | B2 |
| 2.1 OD450 | B3 |
| 2.15 OD450 | B4 |
| 2.32 OD450 | B5 |
| 2.3 OD450 | B6 |
| 1.94 OD450 | B7 |
| 2.12 OD450 | B8 |
| 2.35 OD450 | B9 |
| 2.27 OD450 | B10 |
| 2.44 OD450 | B11 |
| 2.52 OD450 | B12 |
| 1.9 OD450 | B13 |

Each binder was assayed against T2, human MSLN-hFc protein (Acro, Cat. No. …) (assay: ELISA on coated antigen, antibody 0.001 nM).

| OD450 | Binder |
| --- | --- |
| 0.04 OD450 | B1 |
| 0.05 OD450 | B2 |
| 0.04 OD450 | B3 |
| 0.04 OD450 | B4 |
| 0.04 OD450 | B5 |
| 0.05 OD450 | B6 |
| 0.06 OD450 | B7 |
| 0.05 OD450 | B8 |
| 0.04 OD450 | B9 |
| 0.04 OD450 | B10 |
| 0.04 OD450 | B11 |
| 0.05 OD450 | B12 |
| 0.05 OD450 | B13 |

These binders were tested against T1, human MSLN-R3 protein (assay: ELISA on coated antigen, antibody 0.0001 nM).

| OD450 | Binder |
| --- | --- |
| 0.05 OD450 | B1 |
| 0.05 OD450 | B2 |
| 0.05 OD450 | B3 |
| 0.05 OD450 | B4 |
| 0.05 OD450 | B5 |
| 0.05 OD450 | B6 |
| 0.05 OD450 | B7 |
| 0.05 OD450 | B8 |
| 0.05 OD450 | B9 |
| 0.05 OD450 | B10 |
| 0.04 OD450 | B11 |
| 0.04 OD450 | B12 |
| 0.04 OD450 | B13 |
